Results reported in the supplement of paper PMC9112550, “Optimization of the antimicrobial peptide Bac7 by deep mutational scanning” (BMC Biology, 2022).

Test system: Escherichia coli TOP10
Experiment: shrunken log2 fold change of peptide-encoding DNA abundance (4.5 h post-induction vs induction); higher = less antimicrobial activity (less host growth inhibition)
Settings: time post-induction: 4.5 h; library: site-saturation at positions 5, 18, 19, 20
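Also: peptides expressed intracellularly from a pBAD plasmid library in pooled LB shake-flask culture, induced with 0.3% L-arabinose, DNA abundance read by NGS, three biological replicates, DESeq2 with apeglm shrinkage.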

| Sequence | shrunken log2 fold change |
| --- | --- |
| RRIRYRPPRLPRPRPRPPQKPRP | -0.123 |
| RRIRYRPPRLPRPRPRPPTIPRP | -0.424 |
| RRIRYRPPRLPRPRPRPPTMPRP | -0.352 |
| RRIRYRPPRLPRPRPRPPTQPRP | -0.056 |
| RRIRYRPPRLPRPRPRPPVWPRP | 0.0256 |
| RRIRYRPPRLPRPRPRPPWCPRP | -0.338 |
| RRIRYRPPRLPRPRPRPPWSPRP | -0.372 |
| RRIRYRPPRLPRPRPRPPYLPRP | -0.985 |
| RRIRYRPPRLPRPRPRPQAYPRP | -0.00884 |
| RRIRYRPPRLPRPRPRPQCDPRP | -0.529 |
| RRIRYRPPRLPRPRPRPQCQPRP | -0.00208 |
| RRIRYRPPRLPRPRPRPQDLPRP | 0.0284 |
| RRIRYRPPRLPRPRPRPQDMPRP | 0.000181 |
| RRIRYRPPRLPRPRPRPQDYPRP | -0.236 |
| RRIRYRPPRLPRPRPRPQEDPRP | -0.135 |
| RRIRYRPPRLPRPRPRPQEIPRP | -0.507 |
| RRIRYRPPRLPRPRPRPQEYPRP | -0.00804 |
| RRIRYRPPRLPRPRPRPQFGPRP | 0.03 |
| RRIRYRPPRLPRPRPRPQFSPRP | 0.0125 |
| RRIRYRPPRLPRPRPRPQGCPRP | -0.557 |
| RRIRYRPPRLPRPRPRPQIPPRP | -0.17 |
| RRIRYRPPRLPRPRPRPQLEPRP | -0.418 |
| RRIRYRPPRLPRPRPRPQLGPRP | -0.238 |
| RRIRYRPPRLPRPRPRPQLTPRP | -0.0894 |
| RRIRYRPPRLPRPRPRPQMKPRP | -1.17 |

| Sequence | shrunken log2 fold change |
| --- | --- |
| RRIRYRPPRLPRPRPRPQNGPRP | -0.152 |
| RRIRYRPPRLPRPRPRPQNYPRP | -0.81 |
| RRIRYRPPRLPRPRPRPQPGPRP | -0.0846 |
| RRIRYRPPRLPRPRPRPQQTPRP | 0.019 |
| RRIRYRPPRLPRPRPRPQRQPRP | -0.00525 |
| RRIRYRPPRLPRPRPRPQTKPRP | -0.168 |
| RRIRYRPPRLPRPRPRPQVMPRP | -0.0105 |
| RRIRYRPPRLPRPRPRPQVTPRP | -0.00804 |
| RRIRYRPPRLPRPRPRPQYDPRP | -0.0291 |
| RRIRYRPPRLPRPRPRPRAIPRP | -0.36 |
| RRIRYRPPRLPRPRPRPRCIPRP | -0.308 |
| RRIRYRPPRLPRPRPRPRCVPRP | -0.276 |
| RRIRYRPPRLPRPRPRPRDEPRP | 0.047 |
| RRIRYRPPRLPRPRPRPRFKPRP | -0.302 |
| RRIRYRPPRLPRPRPRPRGVPRP | 0.0913 |
| RRIRYRPPRLPRPRPRPRIEPRP | 0.0242 |
| RRIRYRPPRLPRPRPRPRKYPRP | -0.333 |
| RRIRYRPPRLPRPRPRPRLGPRP | 0.0954 |
| RRIRYRPPRLPRPRPRPRLLPRP | -0.0826 |
| RRIRYRPPRLPRPRPRPRLVPRP | -0.0287 |
| RRIRYRPPRLPRPRPRPRMMPRP | 0.0163 |
| RRIRYRPPRLPRPRPRPRMNPRP | 0.0193 |
| RRIRYRPPRLPRPRPRPRNSPRP | 0.022 |
| RRIRYRPPRLPRPRPRPRNVPRP | -0.324 |
| RRIRYRPPRLPRPRPRPRPSPRP | 0.0768 |

| Sequence | shrunken log2 fold change |
| --- | --- |
| RRIRYRPPRLPRPRPRPRPWPRP | 0.332 |
| RRIRYRPPRLPRPRPRPRRQPRP | -0.232 |
| RRIRYRPPRLPRPRPRPRSTPRP | -0.156 |
| RRIRYRPPRLPRPRPRPRTWPRP | -0.0833 |
| RRIRYRPPRLPRPRPRPRVHPRP | -0.0416 |
| RRIRYRPPRLPRPRPRPRVMPRP | -0.155 |
| RRIRYRPPRLPRPRPRPRVSPRP | -0.216 |
| RRIRYRPPRLPRPRPRPRYCPRP | -0.495 |
| RRIRYRPPRLPRPRPRPRYHPRP | -0.922 |
| RRIRYRPPRLPRPRPRPRYPPRP | -0.83 |
| RRIRYRPPRLPRPRPRPRYRPRP | -0.0551 |
| RRIRYRPPRLPRPRPRPRYVPRP | -0.0777 |
| RRIRYRPPRLPRPRPRPSCEPRP | -0.586 |
| RRIRYRPPRLPRPRPRPSCKPRP | -0.908 |
| RRIRYRPPRLPRPRPRPSCQPRP | -0.296 |
| RRIRYRPPRLPRPRPRPSCRPRP | -0.6 |
| RRIRYRPPRLPRPRPRPSCVPRP | -0.497 |
| RRIRYRPPRLPRPRPRPSDFPRP | -1.03 |
| RRIRYRPPRLPRPRPRPSDMPRP | -0.00973 |
| RRIRYRPPRLPRPRPRPSDYPRP | -1.34 |
| RRIRYRPPRLPRPRPRPSEPPRP | -0.205 |
| RRIRYRPPRLPRPRPRPSGPPRP | -0.395 |
| RRIRYRPPRLPRPRPRPSHRPRP | -0.479 |
| RRIRYRPPRLPRPRPRPSIQPRP | -0.594 |
| RRIRYRPPRLPRPRPRPSIRPRP | -0.116 |

| Sequence | shrunken log2 fold change |
| --- | --- |
| RRIRYRPPRLPRPRPRPSKIPRP | -0.502 |
| RRIRYRPPRLPRPRPRPSKWPRP | -0.155 |
| RRIRYRPPRLPRPRPRPSMAPRP | -0.572 |
| RRIRYRPPRLPRPRPRPSMEPRP | -0.408 |
| RRIRYRPPRLPRPRPRPSMKPRP | -0.806 |
| RRIRYRPPRLPRPRPRPSMLPRP | -1.07 |
| RRIRYRPPRLPRPRPRPSMSPRP | -1.19 |
| RRIRYRPPRLPRPRPRPSNAPRP | -1 |
| RRIRYRPPRLPRPRPRPSNYPRP | -1.28 |
| RRIRYRPPRLPRPRPRPSPIPRP | -1.06 |
| RRIRYRPPRLPRPRPRPSQQPRP | 0.102 |
| RRIRYRPPRLPRPRPRPSQYPRP | -0.209 |
| RRIRYRPPRLPRPRPRPSYQPRP | -1.27 |
| RRIRYRPPRLPRPRPRPTAQPRP | 0.0778 |
| RRIRYRPPRLPRPRPRPTCAPRP | -0.0853 |
| RRIRYRPPRLPRPRPRPTDSPRP | -0.678 |
| RRIRYRPPRLPRPRPRPTELPRP | 0.0588 |
| RRIRYRPPRLPRPRPRPTFFPRP | -0.0709 |
| RRIRYRPPRLPRPRPRPTFRPRP | -0.0396 |
| RRIRYRPPRLPRPRPRPTGDPRP | 0.00498 |
| RRIRYRPPRLPRPRPRPTHYPRP | -0.867 |
| RRIRYRPPRLPRPRPRPTIMPRP | -1.29 |
| RRIRYRPPRLPRPRPRPTKFPRP | -0.316 |
| RRIRYRPPRLPRPRPRPTKKPRP | 0.113 |
| RRIRYRPPRLPRPRPRPTLHPRP | -0.749 |

| Sequence | shrunken log2 fold change |
| --- | --- |
| RRIRYRPPRLPRPRPRPTLQPRP | 0.201 |
| RRIRYRPPRLPRPRPRPTPDPRP | -0.145 |
| RRIRYRPPRLPRPRPRPTPIPRP | -0.158 |
| RRIRYRPPRLPRPRPRPTPSPRP | 0.421 |
| RRIRYRPPRLPRPRPRPTPYPRP | -0.847 |
| RRIRYRPPRLPRPRPRPTQCPRP | -0.0863 |
| RRIRYRPPRLPRPRPRPTQRPRP | -0.164 |
| RRIRYRPPRLPRPRPRPTRVPRP | 0.303 |
| RRIRYRPPRLPRPRPRPTSAPRP | 0.0113 |
| RRIRYRPPRLPRPRPRPTSDPRP | -0.459 |
| RRIRYRPPRLPRPRPRPTSQPRP | 0.054 |
| RRIRYRPPRLPRPRPRPTSTPRP | -0.203 |
| RRIRYRPPRLPRPRPRPTTCPRP | -0.923 |
| RRIRYRPPRLPRPRPRPTTHPRP | -0.647 |
| RRIRYRPPRLPRPRPRPTVQPRP | 0.028 |
| RRIRYRPPRLPRPRPRPVCPPRP | 0.101 |
| RRIRYRPPRLPRPRPRPVDDPRP | -0.443 |
| RRIRYRPPRLPRPRPRPVGNPRP | -0.0681 |
| RRIRYRPPRLPRPRPRPVGWPRP | 0.344 |
| RRIRYRPPRLPRPRPRPVHTPRP | -0.562 |
| RRIRYRPPRLPRPRPRPVIEPRP | -0.424 |
| RRIRYRPPRLPRPRPRPVKGPRP | -0.015 |
| RRIRYRPPRLPRPRPRPVKTPRP | -0.0365 |
| RRIRYRPPRLPRPRPRPVKVPRP | 0.0182 |
| RRIRYRPPRLPRPRPRPVNFPRP | 0.00408 |

| Sequence | shrunken log2 fold change |
| --- | --- |
| RRIRYRPPRLPRPRPRPVNMPRP | -0.47 |
| RRIRYRPPRLPRPRPRPVPCPRP | -0.226 |
| RRIRYRPPRLPRPRPRPVPSPRP | -0.404 |
| RRIRYRPPRLPRPRPRPVPTPRP | -0.0167 |
| RRIRYRPPRLPRPRPRPVQMPRP | -0.0524 |
| RRIRYRPPRLPRPRPRPVSIPRP | -0.821 |
| RRIRYRPPRLPRPRPRPVSTPRP | -0.511 |
| RRIRYRPPRLPRPRPRPVVEPRP | -0.34 |
| RRIRYRPPRLPRPRPRPVVQPRP | 0.0013 |
| RRIRYRPPRLPRPRPRPVVYPRP | 0.0874 |
| RRIRYRPPRLPRPRPRPVYFPRP | -1.42 |
| RRIRYRPPRLPRPRPRPVYKPRP | -0.924 |
| RRIRYRPPRLPRPRPRPWAPPRP | -0.289 |
| RRIRYRPPRLPRPRPRPWCAPRP | -0.255 |
| RRIRYRPPRLPRPRPRPWDRPRP | -0.103 |
| RRIRYRPPRLPRPRPRPWDWPRP | -0.0724 |
| RRIRYRPPRLPRPRPRPWFFPRP | -0.841 |
| RRIRYRPPRLPRPRPRPWGWPRP | -0.0384 |
| RRIRYRPPRLPRPRPRPWIKPRP | 0.106 |
| RRIRYRPPRLPRPRPRPWKAPRP | -0.0135 |
| RRIRYRPPRLPRPRPRPWKLPRP | -0.121 |
| RRIRYRPPRLPRPRPRPWLKPRP | -0.0198 |
| RRIRYRPPRLPRPRPRPWLTPRP | -0.558 |
| RRIRYRPPRLPRPRPRPWNIPRP | -0.01 |
| RRIRYRPPRLPRPRPRPWPTPRP | -0.426 |
